Consider one molecule from publication PMC6262872, “DARPins recognize mTFP1 as novel reagents for in vitro and in vivo protein manipulations” (Biology Open, 2018).

The test concerns the target T1, monomeric teal fluorescent protein 1 (mTFP1), N-terminally hexa-His-SBP-tagged.
T1 construct: mTFP1, engineered monomeric teal fluorescent protein (Ai et al., 2006); PDB 2HQK is the cited mTFP1 structure; also called SBP-tagged mTFP1; source: E. coli BL21(DE3), purified (Ni-NTA)
The test can be described thus: fluorescence polarisation; fluorescence anisotropy; constant 15 nM mTFP1 titrated with a dilution series of DARPin; non-linear fit. As to conditions: both partners purified. On the technique in general: Fluorescence polarisation rises when a labelled molecule tumbles more slowly, as on binding a larger partner.

B1: DARPin 1238_G01 (N-terminal His8, C-terminal FLAG) (designed binder)
chain: GSDLGKKLLEAARAGQDDEVRILMANGADVNAEDWMGATPLHLAAQSGHLEIVEVLLKTGADVNAHDAFGWTPLHLAASQGHLEIVEVLLKAGADVNATDMVGRTPLHLAARRGHLEIVEVLLKHGADVNAQDKFGKTPFDLAIDNGNEDIAEVLQKAAKLN
modifications: N-terminal MRGS-His8 and C-terminal FLAG tags left out; the GP cloning residues of the crystal construct are also left out
In turn, B1 gave a Kd of roughly 88 nM.

Usually Kd stands for the equilibrium constant for the complex coming apart. A lower Kd goes with higher affinity.
